In patent US11827699 (dated 2023) one finds Kd data, which are given here for nine molecules.

What all share (test): SPR
(Surface plasmon resonance follows binding to a sensor surface in real time, without labels.)

Test [1] concerns the target T1, human FcγRIIa R131 (human, UniProt P12318).
T1 chain: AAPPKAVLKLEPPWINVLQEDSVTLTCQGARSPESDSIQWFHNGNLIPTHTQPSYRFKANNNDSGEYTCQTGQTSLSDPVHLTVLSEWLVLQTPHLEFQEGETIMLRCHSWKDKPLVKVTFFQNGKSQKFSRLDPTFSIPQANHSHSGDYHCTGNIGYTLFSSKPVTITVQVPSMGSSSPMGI

Test [2] addresses T2, human FcγRIIb (human, UniProt P31994).
T2 chain: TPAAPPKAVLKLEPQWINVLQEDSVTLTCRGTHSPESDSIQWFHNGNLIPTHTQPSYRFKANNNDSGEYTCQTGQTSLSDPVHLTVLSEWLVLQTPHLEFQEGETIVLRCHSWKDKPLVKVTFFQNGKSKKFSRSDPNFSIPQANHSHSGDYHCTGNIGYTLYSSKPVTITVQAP

Test [3] deals with human FcγRIIIa V158 (human, UniProt P08637).
For test [4], the target named is T3, human FcγRIIa H131 (human, UniProt P12318).
T3 chain: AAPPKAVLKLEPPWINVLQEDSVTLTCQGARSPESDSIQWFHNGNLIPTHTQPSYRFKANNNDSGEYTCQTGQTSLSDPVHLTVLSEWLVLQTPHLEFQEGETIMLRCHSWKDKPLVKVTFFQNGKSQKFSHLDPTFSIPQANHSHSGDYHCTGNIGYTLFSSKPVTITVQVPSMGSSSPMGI

Test [5] deals with T4, human FcγRIa (human, UniProt P12314).
T4 chain: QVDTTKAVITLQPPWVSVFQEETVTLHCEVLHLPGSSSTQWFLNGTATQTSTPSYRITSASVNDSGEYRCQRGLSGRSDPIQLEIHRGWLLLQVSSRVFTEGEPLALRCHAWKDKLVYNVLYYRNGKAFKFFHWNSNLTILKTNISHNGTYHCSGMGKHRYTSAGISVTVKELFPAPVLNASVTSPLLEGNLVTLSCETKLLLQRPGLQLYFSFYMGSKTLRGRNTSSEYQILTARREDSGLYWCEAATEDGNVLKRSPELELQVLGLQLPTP

Chain of human FcγRIIIa V158 (P08637 17-208 F176V): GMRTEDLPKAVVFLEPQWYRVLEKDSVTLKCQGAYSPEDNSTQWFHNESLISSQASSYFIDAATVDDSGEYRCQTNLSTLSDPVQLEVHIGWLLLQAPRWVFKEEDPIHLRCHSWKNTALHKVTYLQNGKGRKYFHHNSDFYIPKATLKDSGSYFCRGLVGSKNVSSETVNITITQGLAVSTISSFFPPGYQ

B1: IL6R-BP489 (antibody)
chain 1: QVQLQESGPGLVKPSETLSLTCAVSGHSISHDHAWSWVRQPPGEGLEWIGFISYSGITNYNPSLQGRVTISRDNSKNTLYLQMNSLRAEDTAVYYCARSLARTTAMDYWGEGTLVTVSSASTKGPSVFPLAPSSKSTSGGTAALGCLVKDYFPEPVTVSWNSGALTSGVHTFPAVLQSSGLYSLSSVVTVPSSSLGTQTYICNVNHKPSNTKVDKKVEPKSCDKTHTCPPCPAPDLLGDDSVFLFPPKPKDTLMISRTPEVTCVVIDVAEEDGEVKFNWYVDGVEVHNAKTKPREEQDNSTYRVVSVLTVLHQDWLNGKEYKCKVSNKALPRPIEKTISKAKGQPREPQVYTLPPSRDELTKNQVSLTCLVKGFYPSDIAVEWESNGQPENNYKTTPMVLDSDGSFFLYSKLTVDKSRWQQGNVFSCSVMHEALHNHYTQESLSLSP
chain 2: not shown
The term Kd denotes the constant that tells how readily two partners part at equilibrium. Read a low Kd as a tighter complex. For the molecule B1, the Kd stood at 43 nM in test [1]; 1 nM in test [2]; 12000 nM in test [3]; 870 nM in test [4]; 1.3 nM in test [5].

B2: IL6R-BP499 (antibody)
chain 1: QVQLQESGPGLVKPSETLSLTCAVSGHSISHDHAWSWVRQPPGEGLEWIGFISYSGITNYNPSLQGRVTISRDNSKNTLYLQMNSLRAEDTAVYYCARSLARTTAMDYWGEGTLVTVSSASTKGPSVFPLAPSSKSTSGGTAALGCLVKDYFPEPVTVSWNSGALTSGVHTFPAVLQSSGLYSLSSVVTVPSSSLGTQTYICNVNHKPSNTKVDKKVEPKSCDKTHTCPPCPAPDLLGDDSVFLFPPKPKDTLMISRTPEVTCVVIDVAEEDGEVKFNWYVDGVEVHNAKTKPREEQDNSTYRVVSVLTVLHQDWLNGKEYKCKVSNKALPRPIEKTISKAKGQPREPQVYTLPPSRDELTKNQVSLTCLVKGFYPSDIAVEWESNGQPENNYKTTPLVLDSDGSFFLYSKLTVDKSRWQQGNVFSCSVMHEALHNHYTQESLSLSP
chain 2: not shown
In the case of B2, the Kd was determined as 49 nM in test [1]; 1.5 nM in test [2]; 12000 nM in test [3]; 1000 nM in test [4]; 1.2 nM in test [5].

B3: IL6R-BP491 (antibody)
chain 1: QVQLQESGPGLVKPSETLSLTCAVSGHSISHDHAWSWVRQPPGEGLEWIGFISYSGITNYNPSLQGRVTISRDNSKNTLYLQMNSLRAEDTAVYYCARSLARTTAMDYWGEGTLVTVSSASTKGPSVFPLAPSSKSTSGGTAALGCLVKDYFPEPVTVSWNSGALTSGVHTFPAVLQSSGLYSLSSVVTVPSSSLGTQTYICNVNHKPSNTKVDKKVEPKSCDKTHTCPPCPAPELLGDDSVFLFPPKPKDTLMISRTPEVTCVVIDVAEEDGEVKFNWYVDGVEVHNAKTKPREEQDNSTYRVVSVLTVLHQDWLNGKEYKCKVSNKALPRPIEKTISKAKGQPREPQVYTLPPSRDELTKNQVSLTCLVKGFYPSDIAVEWESNGQPENNYKTTPPVLDSDGSFFLYSKLTVDKSRWQQGNVFSCSVMHEALHNHYTQESLSLSP
chain 2: not shown
For the molecule B3, the Kd in test [1] amounted to 120 nM; in test [2], 3 nM; in test [3], 21000 nM; in test [4], 2200 nM; in test [5] it was 5.3 nM.

B4: IL6R-BP511 (antibody)
chain 1: QVQLQESGPGLVKPSETLSLTCAVSGHSISHDHAWSWVRQPPGEGLEWIGFISYSGITNYNPSLQGRVTISRDNSKNTLYLQMNSLRAEDTAVYYCARSLARTTAMDYWGEGTLVTVSSASTKGPSVFPLAPSSKSTSGGTAALGCLVKDYFPEPVTVSWNSGALTSGVHTFPAVLQSSGLYSLSSVVTVPSSSLGTQTYICNVNHKPSNTKVDKKVEPKSCDKTHTCPPCPAPELLGDDSVFLFPPKPKDTLMISRTPEVTCVVIDVAEEDGPVKFNWYVDGVEVHNAKTKPREEQDNSTYRVVSVLTVLHQDWLNGKEYKCKVSNKALPRPIEKTISKAKGQPREPQVYTLPPSRDELTKNQVSLTCLVKGFYPSDIAVEWESNGQPENNYKTTPPVLDSDGSFFLYSKLTVDKSRWQQGNVFSCSVMHEALHNHYTQESLSLSP
chain 2: not shown
On to B4, for which the Kd in test [1] worked out at 180 nM; in test [2] it was 3.5 nM; in test [3], 71000 nM; in test [4] it was 4300 nM; in test [5], 6 nM.

B5: IL6R-BP505 (antibody)
chain 1: QVQLQESGPGLVKPSETLSLTCAVSGHSISHDHAWSWVRQPPGEGLEWIGFISYSGITNYNPSLQGRVTISRDNSKNTLYLQMNSLRAEDTAVYYCARSLARTTAMDYWGEGTLVTVSSASTKGPSVFPLAPSSKSTSGGTAALGCLVKDYFPEPVTVSWNSGALTSGVHTFPAVLQSSGLYSLSSVVTVPSSSLGTQTYICNVNHKPSNTKVDKKVEPKSCDKTHTCPPCPAPDLLGDDSVFLFPPKPKDTLMISRTPEVTCVVIDVAEEDGDVKFNWYVDGVEVHNAKTKPREEQYNSTYRVVSVLTVLHQDWLNGKEYKCKVSNKALPAPIEKTISKAKGQPREPQVYTLPPSRDELTKNQVSLTCLVKGFYPSDIAVEWESNGQPENNYKTTPPVLDSDGSFFLYSKLTVDKSRWQQGNVFSCSVMHEALHNHYTQESLSLSP
chain 2: not shown
For the molecule B5, the Kd in test [1] is 430 nM; in test [2], 21 nM; in test [3], 38000 nM; in test [4], 11000 nM; in test [5], 1.1 nM.

B6: IL6R-BP479 (antibody)
chain 1: QVQLQESGPGLVKPSETLSLTCAVSGHSISHDHAWSWVRQPPGEGLEWIGFISYSGITNYNPSLQGRVTISRDNSKNTLYLQMNSLRAEDTAVYYCARSLARTTAMDYWGEGTLVTVSSASTKGPSVFPLAPSSKSTSGGTAALGCLVKDYFPEPVTVSWNSGALTSGVHTFPAVLQSSGLYSLSSVVTVPSSSLGTQTYICNVNHKPSNTKVDKKVEPKSCDKTHTCPPCPAPDLLGDDSVFLFPPKPKDTLMISRTPEVTCVVIDLAEEDGEVKFNWYVDGVEVHNAKTKPREEQYNSTYRVVSVLTVLHQDWLNGKEYKCKVSNKALPAPIEKTISKAKGQPREPQVYTLPPSRDELTKNQVSLTCLVKGFYPSDIAVEWESNGQPENNYKTTPPVLDSDGSFFLYSKLTVDKSRWQQGNVFSCSVMHEALHNHYTQESLSLSP
chain 2: not shown
Regarding B6, the Kd in test [1] turned out to be 900 nM; in test [2] it was 56 nM; in test [3] it was 40000 nM; in test [4], 15000 nM; in test [5] it was 5.3 nM.

B7: IL6R-BP483 (antibody)
chain 1: QVQLQESGPGLVKPSETLSLTCAVSGHSISHDHAWSWVRQPPGEGLEWIGFISYSGITNYNPSLQGRVTISRDNSKNTLYLQMNSLRAEDTAVYYCARSLARTTAMDYWGEGTLVTVSSASTKGPSVFPLAPSSKSTSGGTAALGCLVKDYFPEPVTVSWNSGALTSGVHTFPAVLQSSGLYSLSSVVTVPSSSLGTQTYICNVNHKPSNTKVDKKVEPKSCDKTHTCPPCPAPDLLGDDSVFLFPPKPKDTLMISRTPEVTCVVVDLAEEDGEVKFNWYVDGVEVHNAKTKPREEQYNSTYRVVSVLTVLHQDWLNGKEYKCKVSNKALPAPIEKTISKAKGQPREPQVYTLPPSRDELTKNQVSLTCLVKGFYPSDIAVEWESNGQPENNYKTTPPVLDSDGSFFLYSKLTVDKSRWQQGNVFSCSVMHEALHNHYTQESLSLSP
chain 2: not shown
B7: the Kd in test [1] worked out at 1300 nM; in test [2], 78 nM; in test [3] it was 25000 nM; in test [4], 18000 nM; in test [5], 1.3 nM.

B8: IL6R-BP504 (antibody)
chain 1: QVQLQESGPGLVKPSETLSLTCAVSGHSISHDHAWSWVRQPPGEGLEWIGFISYSGITNYNPSLQGRVTISRDNSKNTLYLQMNSLRAEDTAVYYCARSLARTTAMDYWGEGTLVTVSSASTKGPSVFPLAPSSKSTSGGTAALGCLVKDYFPEPVTVSWNSGALTSGVHTFPAVLQSSGLYSLSSVVTVPSSSLGTQTYICNVNHKPSNTKVDKKVEPKSCDKTHTCPPCPAPDLLGDDSVFLFPPKPKDTLMISRTPEVTCVVIDVAEEDGPVKFNWYVDGVEVHNAKTKPREEQYNSTYRVVSVLTVLHQDWLNGKEYKCKVSNKALPAPIEKTISKAKGQPREPQVYTLPPSRDELTKNQVSLTCLVKGFYPSDIAVEWESNGQPENNYKTTPPVLDSDGSFFLYSKLTVDKSRWQQGNVFSCSVMHEALHNHYTQESLSLSP
chain 2: not shown
Consider B8, for which the Kd amounted to 450 nM in test [1]; 24 nM in test [2]; 34000 nM in test [3]; 16000 nM in test [4]; 1.4 nM in test [5].

B9: IL6R-BP481 (antibody)
chain 1: QVQLQESGPGLVKPSETLSLTCAVSGHSISHDHAWSWVRQPPGEGLEWIGFISYSGITNYNPSLQGRVTISRDNSKNTLYLQMNSLRAEDTAVYYCARSLARTTAMDYWGEGTLVTVSSASTKGPSVFPLAPSSKSTSGGTAALGCLVKDYFPEPVTVSWNSGALTSGVHTFPAVLQSSGLYSLSSVVTVPSSSLGTQTYICNVNHKPSNTKVDKKVEPKSCDKTHTCPPCPAPDLLGDDSVFLFPPKPKDTLMISRTPEVTCVVIDVAEEDGEVKFNWYVDGVEVHNAKTKPREEQYNSTYRVVSVLTVLHQDWLNGKEYKCKVSNKALPAPIEKTISKAKGQPREPQVYTLPPSRDELTKNQVSLTCLVKGFYPSDIAVEWESNGQPENNYKTTPPVLDSDGSFFLYSKLTVDKSRWQQGNVFSCSVMHEALHNHYTQESLSLSP
chain 2: not shown
As to B9, the Kd in test [1] was determined as 400 nM; in test [2], 19 nM; in test [3] it was 24000 nM; in test [4], 6800 nM; in test [5], 1 nM.
